Earlier results on two substances are cited in PMC1074345.

In this data set the target is Angiotensin II AngII (Homo sapiens) (UniProt P01019). Put plainly: radioligand.
Sequence of UniProt P01019 (P01019 whole entry, looked up): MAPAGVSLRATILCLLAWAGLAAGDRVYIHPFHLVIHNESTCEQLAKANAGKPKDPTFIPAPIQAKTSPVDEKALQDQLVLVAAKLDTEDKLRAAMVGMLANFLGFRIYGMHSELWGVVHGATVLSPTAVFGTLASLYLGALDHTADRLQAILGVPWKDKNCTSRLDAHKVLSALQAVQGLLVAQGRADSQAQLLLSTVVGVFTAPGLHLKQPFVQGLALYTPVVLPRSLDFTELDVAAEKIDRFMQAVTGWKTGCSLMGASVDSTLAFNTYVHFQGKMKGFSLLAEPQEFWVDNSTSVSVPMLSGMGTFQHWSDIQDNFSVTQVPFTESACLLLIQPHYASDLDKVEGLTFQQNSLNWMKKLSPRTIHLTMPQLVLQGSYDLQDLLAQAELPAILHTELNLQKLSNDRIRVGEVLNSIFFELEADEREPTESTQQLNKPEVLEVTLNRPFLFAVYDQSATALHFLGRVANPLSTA

By Kd is commonly meant the equilibrium constant for the complex coming apart. On to AT1 receptor (from UniProt P30556), for which the Kd is 360 pM.

AT2 receptor (from UniProt P50052): the Kd was 170 pM.
